In patent US20040175796A1 (SOLVAY PHARMACEUTICALS B V, published 2004):
No end group written: not given here.

Columns and labels:
[1] = biological target: IGS4A (IGS4APROT), human G-protein coupled receptor IGS4, polymorphic form A (human, UniProt Q9GZQ4 4-415); experiment: cell-based or functional assay
[2] = biological target: T1, IGS4B (IGS4BPROT), human G-protein coupled receptor IGS4, polymorphic form B (human, UniProt Q9GZQ4 4-415); experiment: cell-based or functional assay
T1 chain: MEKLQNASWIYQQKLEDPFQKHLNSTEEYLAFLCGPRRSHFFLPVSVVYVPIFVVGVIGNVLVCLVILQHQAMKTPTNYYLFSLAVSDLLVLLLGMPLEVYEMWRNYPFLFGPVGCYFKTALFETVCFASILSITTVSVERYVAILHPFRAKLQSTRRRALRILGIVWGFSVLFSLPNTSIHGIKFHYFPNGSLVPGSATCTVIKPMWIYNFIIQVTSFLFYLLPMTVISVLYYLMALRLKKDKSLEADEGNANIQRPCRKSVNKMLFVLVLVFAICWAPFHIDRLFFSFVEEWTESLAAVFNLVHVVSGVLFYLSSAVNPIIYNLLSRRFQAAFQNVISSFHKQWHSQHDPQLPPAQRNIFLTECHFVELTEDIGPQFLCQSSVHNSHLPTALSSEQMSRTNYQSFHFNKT

EC50, calcium mobilisation (FLIPR) [1]: 53 nM
log EC50, calcium mobilisation (FLIPR) [1]: -7.27 log M
EC50, calcium mobilisation (FLIPR) [2]: 0.05 nM
LogEC50, calcium mobilisation (FLIPR) [2]: -10.6 log M
Binder: YKVNEYQGPVAPSGGFFLFRPRN-NH2 (peptide, UniProt P12760 144-166, looked up) [rat Neuromedin U-23]
